Data taken from the supplement of paper PMC7125110.
± gives the standard error. For some assays here: Fewer inactive variants are shown than the library holds.

B1: glmS ribozyme (parent)
chain: AUAAAAGCGCCAGAACUACAGAAAUGUAGUUGACGAGGAGGAGGUUUAUCGAAUUUUCGGCGGAUGCCUCCAAA

How the values were obtained:
Details in all cases: with glucosamine-6-phosphate
glucosamine-6-phosphate [1] = variants of: B1; test: kcat; higher = faster cleavage; RNA array
How it was run: (§1)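 Glucosamine-6-phosphate in HEPES/KCl/Mg(OAc)2 buffer, at 40 μM to 10 mM, was flowed over barcoded ribozyme variants transcribed in situ by E. coli RNA polymerase on sequenced MiSeq chips. Tracking was through a hybridised Cy3 probe at 37 °C. kobs, kcat and KM came from exponential decay fits and weighted Michaelis–Menten fits of normalised per-tile medians.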

glucosamine-6-phosphate [2] = variants of: B1; test: KM; higher = weaker cofactor use; RNA array
How it was run: as §1

glucosamine-6-phosphate [3] = variants of: B1; test: self-cleavage kobs at 640 uM GlcN6P; higher = faster cleavage; RNA array
How it was run: as §1

glucosamine-6-phosphate [4] = variants of: B1; test: self-cleavage kobs at 2500 uM GlcN6P; higher = faster cleavage; RNA array
How it was run: as §1

glucosamine-6-phosphate [5] = variants of: B1; test: self-cleavage kobs at 10000 uM GlcN6P; higher = faster cleavage; RNA array
How it was run: as §1

glucosamine-6-phosphate [6] = variants of: B1; test: self-cleavage kobs at 40 uM GlcN6P; higher = faster cleavage; RNA array
How it was run: as §1

glucosamine-6-phosphate [7] = variants of: B1; test: self-cleavage kobs at 160 uM GlcN6P; higher = faster cleavage; RNA array
How it was run: as §1

A39C U45C
kcat (glucosamine-6-phosphate [1]): 0.000523 ± 3.8e-05 s⁻¹
KM (glucosamine-6-phosphate [2]): 3080 ± 440 µM
self-cleavage kobs at 640 uM GlcN6P (glucosamine-6-phosphate [3]): 9.68e-05 ± 1.7e-05 s⁻¹
self-cleavage kobs at 2500 uM GlcN6P (glucosamine-6-phosphate [4]): 0.000214 ± 3.8e-05 s⁻¹
self-cleavage kobs at 10000 uM GlcN6P (glucosamine-6-phosphate [5]): 0.000408 ± 4.5e-05 s⁻¹

U30G G66C
kcat (glucosamine-6-phosphate [1]): 0.000132 ± 1.5e-05 s⁻¹
KM (glucosamine-6-phosphate [2]): 1620 ± 600 µM
self-cleavage kobs at 2500 uM GlcN6P (glucosamine-6-phosphate [4]): 9.1e-05 ± 1.7e-05 s⁻¹
self-cleavage kobs at 10000 uM GlcN6P (glucosamine-6-phosphate [5]): 0.00011 ± 1.6e-05 s⁻¹

A36U U45A C50G
kcat (glucosamine-6-phosphate [1]): < 1e-05 s⁻¹
self-cleavage kobs at 640 uM GlcN6P (glucosamine-6-phosphate [3]): < 1e-05 s⁻¹
self-cleavage kobs at 2500 uM GlcN6P (glucosamine-6-phosphate [4]): < 1e-05 s⁻¹

A39C U46C
kcat (glucosamine-6-phosphate [1]): 0.00261 ± 0.00017 s⁻¹
KM (glucosamine-6-phosphate [2]): 2740 ± 280 µM
self-cleavage kobs at 40 uM GlcN6P (glucosamine-6-phosphate [6]): 3.41e-05 ± 9.8e-06 s⁻¹
self-cleavage kobs at 160 uM GlcN6P (glucosamine-6-phosphate [7]): 0.000168 ± 3.9e-05 s⁻¹
self-cleavage kobs at 640 uM GlcN6P (glucosamine-6-phosphate [3]): 0.000488 ± 6.6e-05 s⁻¹
self-cleavage kobs at 2500 uM GlcN6P (glucosamine-6-phosphate [4]): 0.00122 ± 0.00023 s⁻¹
self-cleavage kobs at 10000 uM GlcN6P (glucosamine-6-phosphate [5]): 0.00206 ± 0.00025 s⁻¹

A42G C50U
kcat (glucosamine-6-phosphate [1]): 0.000135 ± 1.2e-05 s⁻¹
KM (glucosamine-6-phosphate [2]): 5810 ± 1200 µM
self-cleavage kobs at 2500 uM GlcN6P (glucosamine-6-phosphate [4]): 3.96e-05 ± 1.9e-05 s⁻¹
self-cleavage kobs at 10000 uM GlcN6P (glucosamine-6-phosphate [5]): 8.57e-05 ± 1.3e-05 s⁻¹

A14C C16G
kcat (glucosamine-6-phosphate [1]): 8.6e-05 ± 5.5e-06 s⁻¹
KM (glucosamine-6-phosphate [2]): 438 ± 180 µM
self-cleavage kobs at 640 uM GlcN6P (glucosamine-6-phosphate [3]): 4.86e-05 ± 1.2e-05 s⁻¹
self-cleavage kobs at 2500 uM GlcN6P (glucosamine-6-phosphate [4]): 8.11e-05 ± 8.9e-06 s⁻¹
self-cleavage kobs at 10000 uM GlcN6P (glucosamine-6-phosphate [5]): 7.9e-05 ± 6.9e-06 s⁻¹

A6U U54A C67A
kcat (glucosamine-6-phosphate [1]): 2.15e-05 ± 2.2e-06 s⁻¹
self-cleavage kobs at 160 uM GlcN6P (glucosamine-6-phosphate [7]): < 1e-05 s⁻¹

U30G A64G
kcat (glucosamine-6-phosphate [1]): 0.00607 ± 0.0017 s⁻¹
KM (glucosamine-6-phosphate [2]): 1440 ± 540 µM
self-cleavage kobs at 40 uM GlcN6P (glucosamine-6-phosphate [6]): 0.000178 ± 3.9e-05 s⁻¹
self-cleavage kobs at 10000 uM GlcN6P (glucosamine-6-phosphate [5]): 0.0064 ± 0.0018 s⁻¹

G29U G41C
kcat (glucosamine-6-phosphate [1]): 4.75e-05 ± 1.3e-05 s⁻¹
self-cleavage kobs at 10000 uM GlcN6P (glucosamine-6-phosphate [5]): 3.1e-05 ± 9e-06 s⁻¹

U45C U49C G66U
kcat (glucosamine-6-phosphate [1]): < 1e-05 s⁻¹
self-cleavage kobs at 2500 uM GlcN6P (glucosamine-6-phosphate [4]): < 1e-05 s⁻¹
self-cleavage kobs at 10000 uM GlcN6P (glucosamine-6-phosphate [5]): < 1e-05 s⁻¹

A42C U69C
kcat (glucosamine-6-phosphate [1]): 0.000251 ± 7e-05 s⁻¹
self-cleavage kobs at 640 uM GlcN6P (glucosamine-6-phosphate [3]): 0.000126 ± 2.7e-05 s⁻¹
self-cleavage kobs at 2500 uM GlcN6P (glucosamine-6-phosphate [4]): 0.000165 ± 6.2e-05 s⁻¹
self-cleavage kobs at 10000 uM GlcN6P (glucosamine-6-phosphate [5]): 0.000346 ± 0.00013 s⁻¹

A14C C68U
kcat (glucosamine-6-phosphate [1]): 0.000506 ± 4e-05 s⁻¹
KM (glucosamine-6-phosphate [2]): 1460 ± 250 µM
self-cleavage kobs at 160 uM GlcN6P (glucosamine-6-phosphate [7]): 6.97e-05 ± 2.3e-05 s⁻¹
self-cleavage kobs at 640 uM GlcN6P (glucosamine-6-phosphate [3]): 0.00015 ± 2.1e-05 s⁻¹
self-cleavage kobs at 2500 uM GlcN6P (glucosamine-6-phosphate [4]): 0.000305 ± 6.4e-05 s⁻¹
self-cleavage kobs at 10000 uM GlcN6P (glucosamine-6-phosphate [5]): 0.000447 ± 5e-05 s⁻¹

U65A
kcat (glucosamine-6-phosphate [1]): 0.0061 ± 0.001 s⁻¹
KM (glucosamine-6-phosphate [2]): 2260 ± 500 µM
self-cleavage kobs at 40 uM GlcN6P (glucosamine-6-phosphate [6]): 0.00012 ± 2.4e-06 s⁻¹
self-cleavage kobs at 160 uM GlcN6P (glucosamine-6-phosphate [7]): 0.000336 ± 1.5e-05 s⁻¹
self-cleavage kobs at 640 uM GlcN6P (glucosamine-6-phosphate [3]): 0.00117 ± 3.3e-05 s⁻¹
self-cleavage kobs at 2500 uM GlcN6P (glucosamine-6-phosphate [4]): 0.00375 ± 0.00015 s⁻¹
self-cleavage kobs at 10000 uM GlcN6P (glucosamine-6-phosphate [5]): 0.00502 ± 0.00012 s⁻¹

U56C G60A
kcat (glucosamine-6-phosphate [1]): 1.14e-05 ± 1.1e-07 s⁻¹
KM (glucosamine-6-phosphate [2]): 1070 ± 61 µM

U30C G32C
kcat (glucosamine-6-phosphate [1]): 0.000399 ± 5.8e-05 s⁻¹
KM (glucosamine-6-phosphate [2]): 3500 ± 1100 µM
self-cleavage kobs at 640 uM GlcN6P (glucosamine-6-phosphate [3]): 5.99e-05 ± 1.9e-05 s⁻¹
self-cleavage kobs at 2500 uM GlcN6P (glucosamine-6-phosphate [4]): 0.000157 ± 3e-05 s⁻¹
self-cleavage kobs at 10000 uM GlcN6P (glucosamine-6-phosphate [5]): 0.0003 ± 3.4e-05 s⁻¹

G38U U49A C67A
kcat (glucosamine-6-phosphate [1]): 1.26e-05 ± 4.6e-06 s⁻¹

A14C A52U
kcat (glucosamine-6-phosphate [1]): 8.73e-05 ± 5e-06 s⁻¹
KM (glucosamine-6-phosphate [2]): 1920 ± 430 µM
self-cleavage kobs at 2500 uM GlcN6P (glucosamine-6-phosphate [4]): 5.13e-05 ± 1.4e-05 s⁻¹
self-cleavage kobs at 10000 uM GlcN6P (glucosamine-6-phosphate [5]): 7.28e-05 ± 1e-05 s⁻¹

U30A U55G
kcat (glucosamine-6-phosphate [1]): 0.00534 ± 0.002 s⁻¹
self-cleavage kobs at 40 uM GlcN6P (glucosamine-6-phosphate [6]): 0.000142 ± 2.1e-05 s⁻¹
self-cleavage kobs at 160 uM GlcN6P (glucosamine-6-phosphate [7]): 0.000286 ± 5.5e-05 s⁻¹
self-cleavage kobs at 640 uM GlcN6P (glucosamine-6-phosphate [3]): 0.00138 ± 0.00022 s⁻¹
self-cleavage kobs at 2500 uM GlcN6P (glucosamine-6-phosphate [4]): 0.00239 ± 0.00033 s⁻¹
self-cleavage kobs at 10000 uM GlcN6P (glucosamine-6-phosphate [5]): 0.00586 ± 0.00095 s⁻¹
